Results as given in the nanobody polyreactivity screen of Harvey et al. (2022).

assay: yeast display, Sf9 membrane polyspecificity reagent, FACS + sequencing; frameworks hold sequencing errors
Outline: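 Sorting gates, low and high (top ~1%), were placed on anti-HA fluorescence to track expression and on streptavidin fluorescence to track reagent binding. A clone's polyreactivity label is taken from the gate it came out of. The reagent was 10% biotinylated, detergent-solubilized Sf9 membrane, applied for 1 hour at 4 °C to galactose-induced yeast display cells.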

| Sequence | polyreactivity (PSR sort gate) |
| --- | --- |
| QVQLVESGGGLVQAGGSLRLICAASGSTLTSNSMGWYRQAPGKERELVASISRRGDSTNYADSVKGRFTISRDNAKNTVYLQMNSLKPEDTAVYYCVAYGYFQSNLWSEFDYWGQGTQVTVSS | low polyreactivity |
| QVQLVESGGGLVQAGGSLRLICAASGSTYDRNVLGWYRQEPGKERELVAAISRVSSTNYADSVKGRFTISRDNAKNTVYLQMNSLKPEDTAVYYCAADRAGSIMNYWGQGTQVTVSS | low polyreactivity |
| QVQLVESGGGLVQAGGSLRLICAASGTTFGRNAMGWYRQAPGKERELVDAIDSGASTYYADSVKGRFTISRDNAKNTVYLQMNSLKPEDTAVYYCGADVVYDYGGMDYWGQGTQVTVSS | low polyreactivity |
| QVQLVESGGGLVQAGGSLRLICAASGYIFPYYAIGWYRQAPGKERELVAGITTDGSSTYYADSVKGRFTISRDNAKNTVYLQMPSLKPEDTAVYYCYGYPGYTWGWYDYWGQGTQVTVSS | low polyreactivity |
| QVQLVESGGGLVQAGGSLRLICAASGYTFGGYAMGWYRQAPGKERVLVAAISTDGDSTFYADSVKGRFTISRDNAKNTVYLQMNSLKPEDTAVYYCAASVNTGSVTEYDYWGQGTQVTVSS | low polyreactivity |
| QVQLVESGGGLVQAGGSLRLICAASVSTFVRNAMGLYRQAPGKERELVAAISRSGGRTYYADSVKGRFTISRDNAKNTVYLQMNSLKPEDTSVYYCAADGKSVYDYWGQGTQVTVSS | high polyreactivity |
| QVQLVESGGGLVQAGGSLRLICAGSGLTFPYYTMGWYRQAPGEERELVAAISRRGGSTYYADSVKGRFTISRDNAKNTVYLQMNSLKPEDTAVYYCAADKYSWYDYWGQGTQVTVSS | low polyreactivity |
| QVQLVESGGGLVQAGGSLRLICASSGCTFGDYAMGWYRQEPGKERELVAAITIGGITTYADSVKGRFTISRDTAKYTVYLQRNSLKPEDTAVYYCAAAERGHWDDYWGQGTQVTVSS | low polyreactivity |
| QVQLVESGGGLVQAGGSLRLICAVSGHIFGSNAMGWYRQAPGKERELVAAIRSSGGSTYYADSVKGRFTISRDYAKNTVYLQMNSLKPEDTAVYYCAVETLTSTSLTRMDYWGQGTQVTVSS | low polyreactivity |
| QVQLVESGGGLVQAGGSLRLICDASGIIFYDYAMGWYRQAPGKERELVAAITSSGGSTYYADSVKGRFTISRDNAKNTVYLQMNSLKPEDTAVYYCAAATRGSGRRYDYWGQGTQVTLSS | high polyreactivity |
| QVQLVESGGGLVQAGGSLRLICDASGLTFGIYTMGWYRQAPAKESELVAAINWIGTRTYYADSVKGRFTISRDNAKNTVYLQMNSLKPEDTAVYYCATVIGYTKRKYDYWGQGTQVTVSS | high polyreactivity |
| QVQLVESGGGLVQAGGSLRLICDASGNTIIRYAMGWYRQGPGKERELVAAISYSGGRTYYADSVKGRFTISRDNAKNTVYLQMNSLKTEVTAVYYCNAASRYGCDYWRQGTQVTVSS | high polyreactivity |
| QVQLVESGGGLVQAGGSLRLICDASGRIFSFNAMGWSRQAPGKETELVAGITYGGNTYYADSVKGRFTISRDNANNTVYLQMNSLKPEDTAVYYCSAVRGVRHDYWGQGTQVTVSS | low polyreactivity |
| QVQLVESGGGLVQAGGSLRLICDAYVSTFYYYAMGWYRQAPGKVRELVAAISSGGSTNYADSVKGRFTISRDNAKNTVYLQMNILKPEDTAVYYCNAYSYWWLGYDYWGQGTQVTVSS | high polyreactivity |
| QVQLVESGGGLVQAGGSLRLICGASGLTSWYNAMGWYRQAPGKEREFVAAISFSGGRTFYADSVKGRFTISRDNAKNTVYLQMNSLKPEDTAVYYCNADVYGFDYWGQGTQVTVSS | high polyreactivity |
| QVQLVESGGGLVQAGGSLRLICSASGRIFSYNVMGWYRQAPGKEREVVAAITSNDGSTYYADSVKGRFTISRDNAKNTVYLQMNSLKPEDTAVYYCAAPYDYAEYYYWGQGTQVTVSS | low polyreactivity |
| QVQLVESGGGLVQAGGSLRLICSASGRTFAGYVMGWYRQAHGKERELVAAINASGGSTYYADSVKGRFTISRDNAKNTVYLQKNILKPEDTAVYYCAAARLGSDITRRYYYWGQGTQVTVSS | high polyreactivity |
| QVQLVESGGGLVQAGGSLRLICSASGSIFYRNVKRWSRQAPGKEREFVATISRGGTTNYADSVKGRITISRDNAKYTVYLQMNSLKPEDTAVYYCAAPIGVVYVGKGYDYWGQGTQVTLSS | low polyreactivity |
| QVQLVESGGGLVQAGGSLRLIFAASGRIFRPNAMGWYRQAPGKEREFVAAITSSSGTTYYADSVKGRFTISRDNAKNTVYLQMNSLKPEDSAVYYCAAKYTSRSYKYDYWGQGTQVTVSS | high polyreactivity |
| QVQLVESGGGLVQAGGSLRLIGAASGRSLYVYEMGWYRQAPGNDRELVAAISRGGGRTYYADSVKRRFTISRDKAKNTVYVQRNSLKPEDTAVYYGAAPLLIGVSTYRIAPRSGYWGQGTQVTLSS | high polyreactivity |
| QVQLVESGGGLVQAGGSLRLISAASGRIFDLYTMGWYRQAPGKERELVAAIRWSHGSTYYADSVKGRFTISRDNAKNTVYLQMNSLKPEDTAVYYCAADTRTSYYNDDYDYWGQGTQVTVSS | low polyreactivity |

| Sequence | polyreactivity (PSR sort gate) |
| --- | --- |
| QVQLVESGGGLVQAGGSLRLISAASGSTFDSYAMGWYRPAPGKERELVAAITRSVGSTYYADSVKGRFTISRDNAKNTVYLHMNSVKPEVTAVYYCAARGEWAIYVEFDYWGQGTQVTVSS | low polyreactivity |
| QVQLVESGGGLVQAGGSLRLISAASGSTIIRNAMGWYRQAPGKERELVAAISTSGGRTHYADSVKGRFTISRDNAKTTVYLQMNSLKPEDTAVYDCAASNGYQAVTYDYWGQGTQVTVSS | high polyreactivity |
| QVQLVESGGGLVQAGGSLRLNCAASGSTFFGNAMGWYRQAPGKERELVAAISGSGGSTYYADSVKGRFTISRDNAKNTVYLQMNSLKPEDTAVYYCAKYYLTGLARYDYWGQGTQVTVSS | high polyreactivity |
| QVQLVESGGGLVQAGGSLRLNCSAYGSTFFDYVMGWYRQAPGKERDLVAAITRGGSSNYADSVKGRFTISRDNAKNTVYLQMNRLKPEDTAVYYCNAKRDKGFYWWYNYWGQGNQVTVSS | high polyreactivity |
| QVQLVESGGGLVQAGGSLRLNSAASGSIFYRYAMRWYRQAPGKERELVAAISSNGGRTYYADSVKGRFTISRDNSKNTVYLQMNSLKPEDTAVYYCATLPGYSMDYWGQGTQVTVSS | high polyreactivity |
| QVQLVESGGGLVQAGGSLRLRCAASGFIFDYYAMGWYRQAPGKEWELVAGISWSGGSTYYADSVKGRFTISRDNAKNTVYLQMNSLKPEDTAVYYCATDDYLVIFEYDYWGQGTQVTVSS | low polyreactivity |
| QVQLVESGGGLVQAGGSLRLRCAASGFIFGRYTMGWYRQAPGKERELVAAISSRGGSTYYADSVKGRFTISRDNAKNTVYLQMNSLKPEDTAVYYCAADEIYCYDYWGQGTQVTVSS | high polyreactivity |
| QVQLVESGGGLVQAGGSLRLRCAASGFIFRHNAMGWYRQAPGKAREFVAAISISGGSTYYADSVKGRFTISRDNAKNTVYLQMNSLKPEDTAVYYCNARSMGNTYLLYDYWGQGTQVTFSS | low polyreactivity |
| QVQLVESGGGLVQAGGSLRLRCAASGFIFVAYAMGWYIQAPGKERELVAAISWSGGSTYADSVKGRFTISRHNAKNTVYLQMNSLKPEDTAVYYCDARTSPIKTNNWYSQRYDSWGQGTQVTVSS | low polyreactivity |
| QVQLVESGGGLVQAGGSLRLRCAASGFIYLKYDMGWYRQAPGKERELVDRITSTGGSTYYADSVKGRFTISRDNAKNTVYLQMNSLKPEDTAVYYCAAVYISRNFFGRARGDYWGQGTQVTVSS | low polyreactivity |
| QVQLVESGGGLVQAGGSLRLRCAASGFTFFAYALGWYRQAPGKESELVAGISRSGGRTYYADSVKWRFTISRDNAKNTVYLQMNSLKPEDTAVYYCAAGIPVTSRHLGYWGQGTQVTVSS | high polyreactivity |
| QVQLVESGGGLVQAGGSLRLRCAASGFTFGAYAMGWYRQAPGKERELVATIDWRGSSTYYADSVKGRFTISRDNAKNTVYLQMNSLKPEDTAVYYCAARLARGSYAYEYWGQGTQVTVSS | low polyreactivity |
| QVQLVESGGGLVQAGGSLRLRCAASGFTFRFYAMGWYRQAPGKERELVAAISSTGIRTYYADSVKGRFTISRDNAKNTVYLQMNSLKPEDTAFYYCAILHRDSILDYWGQGTQVTVAS | high polyreactivity |
| QVQLVESGGGLVQAGGSLRLRCAASGFTFTRYAMGWYRQAPGKERELVAVITSTAGSTYYADSVKGRFTISRDNAKNTVYLQMNSLKPEDTAVYYCAAESLVHGDVTLEEVVAQSYDYWGQGTQVTVSS | low polyreactivity |
| QVQLVESGGGLVQAGGSLRLRCAASGGIFGRYAMGWNRQAPGKERELVAAISSRGGSTYYADSVKGRFTISRDNAKNTVYLQMNSLKPEDTAVYYCNALWVSYYTFRMDYWGQGTQVTVSS | high polyreactivity |
| QVQLVESGGGLVQAGGSLRLRCAASGIIFEYYAMGLYRQAPGKERELVAAITRGGTTYYADSVKGRFTISRDNAKNTVYLQMNSLKPEDTAVYYCNADSVAYGDEYDFWGQGTQVTVSS | low polyreactivity |
| QVQLVESGGGLVQAGGSLRLRCAASGITFKTYAMGWYRQAPGKERELVATINRGSRTNYADSVKGRFTISRDNAKNTVYLKMNSLKPEDTAVYYCAAHYTTFIPSPDGDYLGQGTQVTVSS | low polyreactivity |
| QVQLVESGGGLVQAGGSLRLRCAASGITFRYYAMGWYRQAPGQERELVAAITRSGSTTYADSVKGRFTISRDNAKNTVYLQLNSLKPEDTAVYYCAVDYYYLTGGVDYWGQGTQVTVSS | low polyreactivity |
| QVQLVESGGGLVQAGGSLRLRCAASGITLVDYAMGWNRQAPGKERELVAAITTGGSTNYADSVKGRFTISRDNAKNTVYLQINSLKPEDTAVYYCNKRAVILYDYWGQGTQVTVSS | low polyreactivity |
| QVQLVESGGGLVQAGGSLRLRCAASGLIFPYNAMGWYRQAPGKERELVAAIDTRGSSTYYADSVKGRFTISRDNAKNTVYLQMNSLKPEDSAVYYCNARTGRSPTGFRYWGQGTEVTVSS | high polyreactivity |
